{
  "source": "patent US20230406948A1",
  "key": {"[1]": {"molecular_target": "human CD40 on cells (native CD40 on Ramos cells, human B cells, human monocyte-derived dendritic cells; cell surface CD40) (human) (UniProt P25942)", "sequence (P25942 21-193)": "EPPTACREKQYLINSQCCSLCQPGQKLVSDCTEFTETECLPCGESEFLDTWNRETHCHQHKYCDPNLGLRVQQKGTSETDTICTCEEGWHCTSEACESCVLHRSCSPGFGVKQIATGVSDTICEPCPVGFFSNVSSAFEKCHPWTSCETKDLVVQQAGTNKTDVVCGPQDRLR", "experiment": "cell-based or functional assay"}, "[2]": {"molecular_target": "human CD40 on cells (native CD40 on Ramos cells, human B cells, human monocyte-derived dendritic cells; cell surface CD40) (human) (UniProt P25942)", "experiment": "FACS on live Ramos cells, goat anti-human IgG (H+L) PE"}},
  "data": [
    {"substance": "SGN-40 (antibody)", "values": [
      {"measurement": "EC50 (ng/ml), CD40 agonist activity: up-regulation of CD86 on human B cells", "setting": "[1]", "result": 1260, "unit": "ng/mL"},
      {"measurement": "EC50", "setting": "[2]", "result": 0.0218, "unit": "µg/mL"}
    ]}
  ]
}
